# Source: PMC6895282
# Target: TM52 (TetR-MphR hybrid regulator) (synthetic chimera of TetR and MphR; …, UniProt P04483 1-52+Q9EVJ6:56-194, internal_change)
# Experiment: EMSA
binder,measurement,value
"TM52 operator fragment (hybrid tet operator, 2-bp spacer) (dsDNA) DNA 1: GCGGTGATACTCCCTATCAGTTGATAGAGAGAGCACATCA DNA 2: TGATGTGCTCTCTCTATCAACTGATAGGGAGTATCACCGC",binding result,binds
